In the RNAGym collection of RNA variant scans (doi:10.7554/elife.80360):

B1: Hairpin Ribozyme (parent)
chain: GUCCUCUUUCACGUGCGCGUGAAAGAGAGAAGUGAACCAGAGAAACACACGUUGUGGUAUAUUACCUGGUA

Variants of: B1
Assay: self-cleavage, relative activity (ratio to wild type); higher = more cleavage; co-transcriptional

Variant	self-cleavage
U7A A44C	0.177
C6U A47C	0.283
C6U A47U	0.0966
C6U A47G	0.107
C6G G40A	0.207
C6G G40C	0.0776
C6G G21A	0.179
C6U U62A	0.266
C6G A23C	0.122
U7A G32U	0.149
U7A G32A	0.145
C6A G40C	0.109
C6A G40U	0.103
C6A G40A	0.236
C6U A71U	0.708
C6U A71G	0.82
U7A A24C	1.02
C6A A39U	0.33
C6A A39G	0.243
U5G U33C	0.0793
U5G U33A	0.17
C6U C66U	0.309
C6G U52C	0.595
U7A A71C	1.34

Variant	self-cleavage
C6U G19C	0.719
C6U G19A	0.793
C6G A47C	0.235
C6A U52C	0.619
C6A U52A	0.588
U7A G17U	0.89
U7C A49C	0.0316
U7C A44U	0.106
U5G U52C	0.596
U5G G54U	0.228
C6G G69C	0.115
C6G G69U	0.188
U7C A22C	0.178
U7C A22G	0.565
C6G A41G	0.47
U7C A11U	0.294
U7C A11G	0.684
C6A C10A	0.404
C6A U58G	0.559
U7A G68A	0.28
U7A G68C	0.146
C6A G42C	0.239
C6G A61C	0.0806
U7A A31C	0.0614

Variant	self-cleavage
U7A A31G	0.77
U7A A31U	0.11
C6A G19A	0.599
C6G A71G	0.574
U7A A11C	0.636
C6A A59G	0.178
C6U G69C	0.178
C6U G69U	0.256
U7A G56C	0.176
U7A G56U	0.128
U7C C65G	0.357
C6A U53G	0.422
C6U A45C	0.0819
C6G G15U	0.706
U5G U60G	0.353
C6G G34A	1.02
C6G U7C	0.299
C6G U7G	0.131
C6A C12G	0.623
C6G A45C	0.163
C6U A39G	0.304
C6A A23G	0.387
C6G G29C	0.146
C6G G29A	0.138

Variant	self-cleavage
C6A A41G	0.439
U7C A59C	0.251
C6A A26G	0.281
C6A A26U	0.364
U7C G42C	0.245
U7C G42A	0.287
U7C	0.894
U7A	0.92
U7C A61C	0.11
C6U G40C	0.14
C6U G56C	0.149
U7A A23U	0.791
U5G U7C	0.143
U5G U7G	0.171
U5G G56C	0.124
U5G G56A	0.0193
U7A U52C	0.953
U7C C10A	0.815
U7C C10U	0.9
U7A C66A	0.269
U7A C66U	0.461
C6A A64G	0.444
U7C A45C	0.136
U7C A45G	0.104

Variant	self-cleavage
C6A G57A	0.107
C6A G57U	0.246
C6A G57C	0.0868
U7A C37U	0.403
U7A C37A	0.261
C6U U20G	0.637
C6A U63G	0.191
U7A U58A	0.58
C6U A24C	0.747
U5G U53C	0.0534
U7C G21A	0.618
C6G G56A	0.149
C6G G56C	0.175
C6G C10U	0.305
U7C A28G	1.02
C6U A30U	0.152
C6A A71U	0.423
C6U A44U	0.12
C6U C65G	0.232
C6G U60A	0.496
C6G U60G	0.31
C6A G34C	1.08
U7C C12U	0.89
C6G G13U	0.27

Variant	self-cleavage
C6A G69C	0.236
C6A G69U	0.121
U7A A41C	1.3
C6G U67G	0.146
C6G U67C	0.151
C6U A31G	0.451
C6U G21A	0.572
U7A U70A	0.766
U7A U70G	0.921
C6U G42U	0.323
C6A G51A	0.765
U7A G19A	0.845
U7C G15A	0.753
C6A C46G	0.189
C6G U14A	0.634
C6G U14G	0.374
C6U C16A	0.85
C6A G17U	0.553
C6U U52A	0.965
C6U U52C	0.773
C6G C65G	0.23
U5G U20G	0.238
U5G U20A	0.279
U7C C16G	0.456

Variant	self-cleavage
U7C C16A	0.913
U7A U14G	0.881
U7A U14A	1.03
U7A A36U	0.568
U7A A39U	0.546
C6A C50U	0.239
C6A G15A	0.54
U7A G54A	0.535
C6A A30G	0.131
C6G A39G	0.197
U5G U70G	0.354
C6A G13A	0.494
C6A G13U	0.592
C6A A45C	0.12
C6U G13U	0.6
U7A C16A	0.911
C6U C37U	0.6
C6U U55A	0.217
C6U U55G	0.375
C6U U55C	0.183
U7C G40A	0.334
C6G G32U	0.116
C6G G32A	0.106
U7C A26U	0.176

Variant	self-cleavage
U7A A28C	0.471
U7A A28G	1.03
C6A G68A	0.176
U7A U67A	0.223
U7A U67G	0.282
C6A U9G	0.419
U7C G25C	0.251
C6U G15A	0.794
C6U G15C	0.722
C6U A28G	0.734
C6U A28C	0.428
C6G G57C	0.124
C6G A43C	0.11
C6U G32A	0.114
C6U G32C	0.0823
C6U G32U	0.0839
U7A C38A	0.28
U7A U62A	0.177
C6G A11G	0.456
U7A A35U	0.714
U7A A59U	0.182
U7A A43C	0.186
C6U C46A	0.0705
C6U C46G	0.204

Variant	self-cleavage
C6U U9A	0.517
U7A G21U	0.683
U7A G21C	0.664
C6A U8G	0.447
C6U A61U	0.0757
C6U A61G	0.155
C6G A49G	0.286
C6G A49U	0.107
U7A G42U	0.173
U7A G42C	0.357
U5G U67A	0.275
U5G U67C	0.117
C6G A30C	0.156
C6G A30G	0.14
U5G U8A	0.126
C6G G25U	0.475
U7C G17A	0.863
U7A U63G	0.199
U7A U63C	0.102
C6G U33A	0.155
C6A U33G	0.149
C6A A43U	0.131
U7A G57U	0.253
U5G U62C	0.129

Variant	self-cleavage
U5G U62A	0.124
U7A A30G	0.305
C6A A24U	0.487
U7A A22C	0.649
U7A A22G	0.61
C6G G19A	0.45
C6G G19C	0.328
C6U A41U	0.977
C6A C37A	0.236
C6A C37U	0.505
C6U U8G	0.431
C6U U8A	0.538
C6U U7G	0.449
C6U A22C	0.493
C6U A22U	0.789
C6G U20A	0.242
U7C C37A	0.37
U7C C37G	0.273
C6U C10U	0.582
C6U C10A	0.55
U7A C50G	0.269
U7A C50A	0.175
C6A U14A	0.612
C6G C48U	0.0659

Variant	self-cleavage
C6G C66A	0.239
C6G C66U	0.173
C6U U60C	0.794
C6G A36U	0.215
U7A A47U	0.0924
U7A A47G	0.0992
U7A A47C	0.34
C6U C12A	0.656
C6U C12G	0.661
U7A U33G	0.0989
C6U G57C	0.135
C6G C50A	0.14
C6G C50G	0.109
C6A G56C	0.128
U7C A41U	0.98
C6U A49G	0.571
U7A G34U	1.4
U7A G34C	1.36
U7C G27A	0.386
U7C G27C	0.172
C6A G54A	0.342
C6A G54U	0.379
C6G C37G	0.142
C6G C37A	0.158

Variant	self-cleavage
U7A U8C	0.559
U7C A71G	1.13
U7C A71C	1.35
C6G C38U	0.332
C6G C38G	0.0998
C6G C16U	0.627
C6A A31G	0.446
C6A A31U	0.0881
C6A A31C	0.1
C6U G51C	0.823
C6A U67C	0.15
C6A A22G	0.453
C6U U33C	0.135
U7A C65U	0.349
U7A C65A	0.876
U7A C10G	0.541
C6U A36G	0.834
C6U G29U	0.12
C6G G42A	0.0986
C6G G42C	0.157
U7A A64U	0.248
C6A A61G	0.137
C6A A61U	0.182
U5G U9A	0.346

Variant	self-cleavage
U5G U9G	0.147
C6U C18A	0.885
C6U U53A	0.912
U7A C12A	0.549
U7A C12U	0.797
U7C A64G	0.458
U7C A64C	0.26
U5G U63G	0.0714
U5G U63A	0.127
C6G U9C	0.436
U7A G27C	0.197
U7A G27U	0.251
C6G A35C	0.499
C6U C38U	0.37
C6U C38G	0.189
U7C A43C	0.0702
C6U G54C	0.311
C6G G51U	0.44
U7A C18A	1.12
C6G	0.521
C6A	0.586
C6U	0.826
U7C G32U	0.261
C6A A49C	0.112

Variant	self-cleavage
C6A A49G	0.204
C6G C18U	0.613
C6G C18G	0.395
C6G C18A	0.645
U7C C46G	0.124
C6G A24C	0.192
C6G A24G	0.337
C6A G25A	0.546
U7C C48U	0.279
C6G A59G	0.121
C6G A59C	0.0783
C6A U62C	0.157
C6A A36C	0.393
C6A A36U	0.384
C6A A36G	0.595
C6G G17A	0.491
C6G G17C	0.365
U7A U20G	0.705
C6U A59C	0.251
C6U A59G	0.266
C6U A59U	0.127
U7A G51C	0.972
